Test results as given in the supplement of paper PMC10567573.

B1: NCF4 (parent)
chain: FGPDSKSSALACTLPTLPAKVYVG
B2: PPEF2 (parent)
chain: DHSGFISLDEFRQTWKLFSSHMNI

Variants of: B1
Test: protein stability index of a GFP-peptide fusion (GPS, HEK-293T) (PSI 1-6); higher = more stable
Conditions: c terminus: a fixed tail appended
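Note: lentivirally expressed fusions sorted by FACS into six bins by GFP to DsRed ratio, PSI derived from sequencing read proportions per bin multiplied by bin number.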

| Variant | protein stability index |
| --- | --- |
| FGPDSKSSALACTLPTLPAKVMVG [Y22M] | 2.7 |
| FGPDSKSSALACTLPTLPAKVNVG [Y22N] | 2.94 |
| FGPDSKSSALACTLPTLPAKVPVG [Y22P] | 2.96 |
| FGPDSKSSALACTLPTLPAKVQVG [Y22Q] | 3.12 |
| FGPDSKSSALACTLPTLPAKVRVG [Y22R] | 3.24 |
| FGPDSKSSALACTLPTLPAKVSVG [Y22S] | 3.4 |
| FGPDSKSSALACTLPTLPAKVTVG [Y22T] | 2.93 |
| FGPDSKSSALACTLPTLPAKVVVG [Y22V] | 2.37 |
| FGPDSKSSALACTLPTLPAKVWVG [Y22W] | 1.67 |
| FGPDSKSSALACTLPTLPAKVYAG [V23A] | 2.29 |
| FGPDSKSSALACTLPTLPAKVYCG [V23C] | 2.72 |
| FGPDSKSSALACTLPTLPAKVYDG [V23D] | 3.21 |
| FGPDSKSSALACTLPTLPAKVYEG [V23E] | 2.81 |
| FGPDSKSSALACTLPTLPAKVYFG [V23F] | 1.78 |
| FGPDSKSSALACTLPTLPAKVYGG [V23G] | 2.66 |
| FGPDSKSSALACTLPTLPAKVYHG [V23H] | 3.06 |
| FGPDSKSSALACTLPTLPAKVYIG [V23I] | 2.29 |
| FGPDSKSSALACTLPTLPAKVYKG [V23K] | 2.86 |
| FGPDSKSSALACTLPTLPAKVYLG [V23L] | 2.67 |
| FGPDSKSSALACTLPTLPAKVYMG [V23M] | 2.34 |
| FGPDSKSSALACTLPTLPAKVYNG [V23N] | 3.2 |
| FGPDSKSSALACTLPTLPAKVYPG [V23P] | 2.77 |
| FGPDSKSSALACTLPTLPAKVYQG [V23Q] | 2.36 |
| FGPDSKSSALACTLPTLPAKVYRG [V23R] | 2.81 |

| Variant | protein stability index |
| --- | --- |
| FGPDSKSSALACTLPTLPAKVYSG [V23S] | 2.62 |
| FGPDSKSSALACTLPTLPAKVYTG [V23T] | 2.96 |
| FGPDSKSSALACTLPTLPAKVYWG [V23W] | 2.07 |
| FGPDSKSSALACTLPTLPAKVYYG [V23Y] | 2.39 |
| FGPDSKSSALACTLPTLPAKVYVA [G24A] | 1.83 |
| FGPDSKSSALACTLPTLPAKVYVC [G24C] | 1.65 |
| FGPDSKSSALACTLPTLPAKVYVD [G24D] | 3.36 |
| FGPDSKSSALACTLPTLPAKVYVE [G24E] | 2.55 |
| FGPDSKSSALACTLPTLPAKVYVF [G24F] | 2.92 |
| FGPDSKSSALACTLPTLPAKVYVH [G24H] | 2.08 |
| FGPDSKSSALACTLPTLPAKVYVI [G24I] | 1.74 |
| FGPDSKSSALACTLPTLPAKVYVK [G24K] | 2.88 |
| FGPDSKSSALACTLPTLPAKVYVL [G24L] | 2.56 |
| FGPDSKSSALACTLPTLPAKVYVM [G24M] | 1.63 |
| FGPDSKSSALACTLPTLPAKVYVN [G24N] | 1.85 |
| FGPDSKSSALACTLPTLPAKVYVP [G24P] | 1.68 |
| FGPDSKSSALACTLPTLPAKVYVQ [G24Q] | 2.22 |
| FGPDSKSSALACTLPTLPAKVYVR [G24R] | 2.29 |
| FGPDSKSSALACTLPTLPAKVYVS [G24S] | 1.97 |
| FGPDSKSSALACTLPTLPAKVYVT [G24T] | 1.9 |
| FGPDSKSSALACTLPTLPAKVYVV [G24V] | 1.84 |
| FGPDSKSSALACTLPTLPAKVYVW [G24W] | 2.29 |
| FGPDSKSSALACTLPTLPAKVYVY [G24Y] | 1.75 |

Variants of: B2
Test: as above
Conditions: c terminus: a fixed tail appended

| Variant | protein stability index |
| --- | --- |
| DHSGFISLDEFRVTWKLFSSHMNI [Q13V] | 2.95 |
| DHSGFISLDEFRQHWKLFSSHMNI [T14H] | 2 |
| DHSGFISLDEFRQTWKNFSSHMNI [L17N] | 1.87 |
| DHSGFISLDEFRPTWKLFSSHMNI [Q13P] | 2.35 |
| DHSGFISLDQFRQTWKLFSSHMNI [E10Q] | 1.96 |
| DHSGFISLDEFRQTWWLFSSHMNI [K16W] | 3.62 |
| DHSGFISLKEFRQTWKLFSSHMNI [D9K] | 2.1 |
| DHSGWISLDEFRQTWKLFSSHMNI [F5W] | 1.93 |
| DHSGFISLDEFRQTWKLKSSHMNI [F18K] | 2.21 |
| DHSGFRSLDEFRQTWKLFSSHMNI [I6R] | 2.08 |
| DHSGFISPDEFRQTWKLFSSHMNI [L8P] | 1.9 |
| DHSGFISLTEFRQTWKLFSSHMNI [D9T] | 2.24 |
| DHSGFISLDEFRQTWKLFSSNMNI [H21N] | 2.01 |
| DHSGFISLDEFRQTWKDFSSHMNI [L17D] | 2.27 |
| DHSGFISLDEFRQTWKLFHSHMNI [S19H] | 1.88 |
| DHSGFISLDEFRQTWKLFGSHMNI [S19G] | 1.81 |
| DHSGFISLDEHRQTWKLFSSHMNI [F11H] | 1.95 |
| DHSGFISLDEFWQTWKLFSSHMNI [R12W] | 2.39 |
| DHSGFISLDEFRQTWKLFSSHMLI [N23L] | 2.3 |
| DHSGFISLDSFRQTWKLFSSHMNI [E10S] | 1.35 |
| DHSGFISLDEFRQTHKLFSSHMNI [W15H] | 1.76 |
| DHSGFISLDEFRQTWKLFSSHMNN [I24N] | 1.8 |
| HHSGFISLDEFRQTWKLFSSHMNI [D1H] | 1.38 |
| DHSLFISLDEFRQTWKLFSSHMNI [G4L] | 2.95 |

| Variant | protein stability index |
| --- | --- |
| DHSGFISLDEFRQTWKLFTSHMNI [S19T] | 2.55 |
| DHSGFISLNEFRQTWKLFSSHMNI [D9N] | 1.51 |
| DHSGFISLDEFRQTWGLFSSHMNI [K16G] | 1.32 |
| DHPGFISLDEFRQTWKLFSSHMNI [S3P] | 1.91 |
| DHSPFISLDEFRQTWKLFSSHMNI [G4P] | 1.98 |
| DHSGFISLDEFRQTYKLFSSHMNI [W15Y] | 2.15 |
| DHSGFISLDEFRHTWKLFSSHMNI [Q13H] | 1.87 |
| DHSGFISLDEDRQTWKLFSSHMNI [F11D] | 1.61 |
| DHSGRISLDEFRQTWKLFSSHMNI [F5R] | 1.28 |
| DHSGFASLDEFRQTWKLFSSHMNI [I6A] | 1.39 |
| DHAGFISLDEFRQTWKLFSSHMNI [S3A] | 1.92 |
| DHSGVISLDEFRQTWKLFSSHMNI [F5V] | 1.53 |
| DHSGFISLDRFRQTWKLFSSHMNI [E10R] | 1.6 |
| DHSGFISLLEFRQTWKLFSSHMNI [D9L] | 3.39 |
| DHSGFISLDEFRQTWKLFSSHMNQ [I24Q] | 1.78 |
| DHSGKISLDEFRQTWKLFSSHMNI [F5K] | 1.52 |
| DHSGFISLDEFRQTWKLFSSQMNI [H21Q] | 1.06 |
| DHIGFISLDEFRQTWKLFSSHMNI [S3I] | 1.84 |
| DHYGFISLDEFRQTWKLFSSHMNI [S3Y] | 2.27 |
| DHSNFISLDEFRQTWKLFSSHMNI [G4N] | 2.69 |
| DHSGFISLDEFRETWKLFSSHMNI [Q13E] | 2.36 |
| DHSGFISLDEFRQTWRLFSSHMNI [K16R] | 2.02 |
| DHSGFILLDEFRQTWKLFSSHMNI [S7L] | 1.83 |
